The series is described as follows: yeast display, Sf9 membrane polyspecificity reagent, FACS + sequencing; frameworks hold sequencing errors. The method in brief: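 A synthetic nanobody library was expressed on Saccharomyces cerevisiae BJ5465 by galactose induction for 36–48 hours. The library was stained for 1 hour at 4 °C with 10% biotinylated, detergent-solubilized Sf9 membrane reagent and enriched with streptavidin microbeads before FACS. Low and high (top ~1%) gates were set on anti-HA fluorescence for expression and streptavidin fluorescence for reagent binding, and each polyreactivity label reflects the gate of origin.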
“QVQLVESGGGLVQAGGSLRLSCAASGSMFYFYAMGWYRQAPGKERELVAAISWCDGDTYYADSVKGRFTISRDNAKNTVYLQMNSLKPEDSAVYYCAAEGLTRYYQYDYWGQGTQVTVSS”: the “polyreactivity (PSR sort gate)” value was “high polyreactivity”.

As to “QVQLVESGGGLVQAGGSLRISCAASGSLFYRYAMGWYRQAPGKEREMVAAINDSGGGTYYADSVKGRFTISRDKAKNTVYLQMNSLKPEDTAVYYCAAATHNKHTARDDYWGQGTQVNVSS”, the “polyreactivity (PSR sort gate)” value was “low polyreactivity”.

As to “QVQLVESGGALVQAGGSLRLTCAASGSTFWDNSMGWYRQAPGKEREFVADITAIGGTTYYADSVKGRFTISRDNAQNTVYLQMNSLKPEDTAVYYCAADWTTYGFSYFSIYYYWGQGTQVTVSS”, the “polyreactivity (PSR sort gate)” value is recorded as “low polyreactivity”.

Regarding “QLQLVESGGGLVKAGGSLRLSCAASGSTFGGNAMGWYRQAPGKERELVASISSSGGRTYYADSVKGRFTISRDNAKNTVYLQMNSLTPEDTAVYYCARRYYYQYRYDYWGQGTQVTVSS”, the “polyreactivity (PSR sort gate)” value is given as “high polyreactivity”.

As to “QVQLVESGGGLVQAGVSLRLSCAGSGSIFRSYTMGWYRQAPGKERELVAAISYSGGRTYYADSVMGRFTISRDNAKNTVYLQLNSLKPEDTAVYYCARRYYVTGCVGYDYWGQGTQVTVSS”, the “polyreactivity (PSR sort gate)” value is “high polyreactivity”.

Turning to “QVQLVESGGGLVQAGGSLRLSCAASAMAWYRQAPWKERELVATISATGGSTYYADSVKGRFTISRDNAKNTVYLQMNSLKPEDTAVYYCNKDPLVFVYWGQGTQVTVSS”, the “polyreactivity (PSR sort gate)” value was “low polyreactivity”.

For “QVQLVESGGGLVQAGCSLRLSCAASGFTFTTYAMGWYRQSPGKERELVAAISRSTGSTYYADSVKGRFTISRDNAKNTVYLKMNSMKPEDTAVYYCNTVFPNGYLSKYYYWGQGTKVTVSS”, the “polyreactivity (PSR sort gate)” value is reported as “high polyreactivity”.

For “QVQLVESGGGLVQAGGSLRLSCAASGRTFYYNAMGWYRQAPGKERELVARITSSGGSTYYADSVKGRFTISRDNAKSTVYLQMNSLKPEDTAVSYCAAGRSRYLWFGRDFDYWGQGTQVTVSS”, the “polyreactivity (PSR sort gate)” value is given as “low polyreactivity”.

“PVQHVESGGGLVQAGGSLRLSCAASGSTLRTYAMGWYRQAPGKERELVAAISFSTTSTYYADSVKGRFTISRDNAKNTVYLQMNSLKPEDTADYYCAAGPRTRYQPDLPGCYYSWGQGTQVTVSS”: the “polyreactivity (PSR sort gate)” value is recorded as “high polyreactivity”.

In the case of “QVQLVESGGGLVQAGGSLRLSCAASGFIFSINAMGWYRQAPGKERELVADIDTGGSTNYADSVKGRFTISRDNAKNTVYLQMNSLKPEDTAVYYCAAQWYQYPSYISYFTSYDYWGQGTQVTVSS”, the “polyreactivity (PSR sort gate)” value is “low polyreactivity”.

Consider “QDQLVESGGCLVQAGGSLRLSCAASGRIIIGYVMGWYRQAPVKERELVATISYSGGSTYADSVKGRFTISRDNAKNTVYLLMNSLKPEDTAVYYCNALFAGHKYYTVTSKYDYWGQGTQVTLSS”, for which the “polyreactivity (PSR sort gate)” value was “high polyreactivity”.

Take “QVQLVESGGGLVQAGGSLRLSCAASGITFRRYTMGWYRQAPGKERELVATISLSDGNTYYADSVKGRFTISRDNAKNTVYLQMNSLKPEDTAVYYCNALHTWHQTYYYWGQGTQVTVSS”: the “polyreactivity (PSR sort gate)” value was “low polyreactivity”.

With “QGHLVESGGGLVQAGGSLRLSCAASGVTFYTYDMGWYRQAPGKERELVAGIDWSGGSTYYADSVNGRFTISRDNAKNTVDLLMNSLKPEYTAVYYCASDYYYASQMDYWGQGTQVTVSS”, the “polyreactivity (PSR sort gate)” value is listed as “low polyreactivity”.

With “QVQLVESGGGLVQAGGSLSLSCAASGSIFSYYDMGWYIQAPGKERELVAGISRGGSTNYADSVKGRFTISRDNAKNTVYLQMNSLKPEDPAVYYCNADYIFWLTLFDYWGQGTQVTVSS”, the “polyreactivity (PSR sort gate)” value is listed as “low polyreactivity”.

As for “QVQLVESGGGLFKAGGSLRLSCAASGRIFEKYAMGWYRQAPGKERELVAAISYSGGSTYYADSVKGRFTISRDNAKNTVYFQMNCLKPEDTAVYYCARYSRTQAYDYWGQGTQVTVSS”, the “polyreactivity (PSR sort gate)” value was “high polyreactivity”.

For the sequence “QVQLVESGGGIVQAGGSLRLSCAASGSTFSYYDMGWYRQAPGKERELVAAISWNGGTTYYADSVKGRFTISRDNAKNTVYLQMNSLKPEDTAVYYCAATWDFYWAPYDSWGQGTQVTVSS”, the “polyreactivity (PSR sort gate)” value is reported as “low polyreactivity”.

For “QVQLVESGGGLVQAGGSLRLSCAASGITFGYYDMGWYRQAPGKERELVASISSGGNTNYADSVKGRFTISRDNAKNTVYLQMNSLKPEDTAVYYCNVRYWGFYDYDYWGQGTQVTVSS”, the “polyreactivity (PSR sort gate)” value is “low polyreactivity”.

“QVQLVESGGGLVQAGGSLRLSCAASGFTFKYYAMGWYRQAPGKERELVAAITSGGSTYADSVKGRFTISRDNAKITVYLQMNSLKPEDTAVYYCAASIDSGKWLGRRYDYWGQGTQVTVSS”: the “polyreactivity (PSR sort gate)” value is “low polyreactivity”.

As for “QVQHVESGGGLVLAGGSLRLSCAASGRTFAYNAMGWYRQAPGKERELVAAISRSGGSTYYADSVKGRFTISRDNPKNTVYLQMYSLKPEDTAVYYSNKVTHSYVYFAAGDYWGQGTQVTVSS”, the “polyreactivity (PSR sort gate)” value was “high polyreactivity”.

“QVQLVESGGGLVQAGGSLRLSCAASGFTFRAYAMGWYRQAPGKERELVAAISWGGGSTYYADSVKGRFTISRDNAKNTVYLQMNSLKPEDTAVYYCATERRRYNTEYEYWGQGTQVTVSS”: the “polyreactivity (PSR sort gate)” value was “high polyreactivity”.

“QVHLVESGGGLVQAGGSLRLSCAASGRTFYPFGMGWYRQATGKERELVATITYSGARTYYADTVKGRFTISRDNAKNTVYLQMNILKPEDTAVYYCAAGYYWGIGTGFDYWGQGTQVTVSS”: the “polyreactivity (PSR sort gate)” value was “high polyreactivity”.

Take “QVQLVESGGGLVQAGGSLRLSCAASGSIFQWYAMGWYRQAPGKERELVAVISRGGRTNYADSVKGRFTISRDNAKNTVYLQMNSLKPEDTAVYYCAAAVWFERGFSYRWRYGYWGQGTQVTVSS”: the “polyreactivity (PSR sort gate)” value is given as “high polyreactivity”.

Regarding “QVQLVESGGGLVQAGGSLRLSCAASGRTFYFNTLGWERQAPGKERELVAAISSGVNTYYADSVKGRFTISRDNAKTTVYLQMNSLKPEDTAVYYCNADYIHTGDYLWYFLYDYWGQGTQVTVSS”, the “polyreactivity (PSR sort gate)” value was “high polyreactivity”.

Consider “QVQLVESGGGLVQAGGSLRLSCAASGFTFYTNAMGWYRQAPGHERELVARISRRGGSTYYADSVKGRFTISRDNAKNTVYLQMNSLKPEDTAVYYCNADGRAAVQYDYWGQGTQVTVSS”, for which the “polyreactivity (PSR sort gate)” value was “high polyreactivity”.

Consider “QVQLVESGGGLVQAGGSLRLSCAASGITFYIYAMGWYRQSPGKERELVATISWSDGRTYYADSVKGRFTISRDNAKNTVYLLMNSLKPEDTAVYYCAADWWYYQFDYEYWGQGTQVTVSS”, for which the “polyreactivity (PSR sort gate)” value was “low polyreactivity”.

With “QVQLVESGGGLVQAGGSLRLSCAASGSIFYAYAMGWYIQAPGKERELVAGINTRGGSTYYADSVKGRFTISRDNAKNTVYLQMNSLKPEDTAVYYCAKGTAPIPYRGRVGTSKSDYWGQGTQVTVSS”, the “polyreactivity (PSR sort gate)” value is “low polyreactivity”.

On to “QVQLVESGGGLVQAGGSLRLSCAASGSTFYGYGMGWYSQAPGKERELVAAITKSVGSTYYADSVNGRFTISRDNAKNTVYLQMNSLKPEDTAVYYCARSTRYRRGPSQYAGTYDYWGQGTQVTVSS”, for which the “polyreactivity (PSR sort gate)” value is listed as “low polyreactivity”.

Consider “QVQLVESGVGLVQAGGSLRLSSAASGRTFPSNNMGWYRQAPGKERELVAAISKNGGSTYYADSVKGRFTISRDNAMNTVYLQMNRLKPEDTAVYYWAATGVSSKRLASQRKLDYWGQGSQVTVSS”, for which the “polyreactivity (PSR sort gate)” value is recorded as “high polyreactivity”.

For the sequence “QVQLVESGGGLVQAGGSLRLSCAASGSIFVKNAMGWYRQAPGKERELVAAISRSGGSTYYADSVKGRFTISRDNAKYTVYLQMNSLKPEDTAVYYCNAYGSYWDFDEWGQGTQVTVSS”, the “polyreactivity (PSR sort gate)” value is “high polyreactivity”.

In the case of “QGQLVESGGGLVQAGGSLRLSCAASGSIFGGYGMGWYRQAPGKERELVAAITSGSSTYYADSVKGRFTISRDNAKNTVYLQMNSLKPEDTAVYYCAARPYPHSAYEGDYWGRGTQVTVSS”, the “polyreactivity (PSR sort gate)” value was “low polyreactivity”.

On to “QVQLEESGGGLVQAGGSLRLSCAASGSIFDSYARGWNSQAPVQERELVAAISRSGGRTYYADSVKGRFTISRDNAKNTVYLQMNSLKPEDTAVYYCNVVLGWWAPYFYTSGDYWGQGTQVTVSS”, for which the “polyreactivity (PSR sort gate)” value is recorded as “high polyreactivity”.

For “QVQLVESGGGLVQAGGSLRLSCAASGITFETYALGWSRQAPGKERELVASIDYDGTSTYYADSVKGRFTISRDNAKNTVYLQMNSLKPEDTAVYYCNARDLDNYGWDDEEYDYWGQGTQVSVSS”, the “polyreactivity (PSR sort gate)” value is reported as “low polyreactivity”.

For the sequence “QVQLVESGGGLVQAGGSLRLSCAASGRTFNYYPMGWYRQAPGKERELVAAISRSGTPTYYADSVKGRFTISRDNAKNTVYLQMNSLKPEDTAVYYCAAYLVSYPRGNYIRYDYWGQGTQVTVSS”, the “polyreactivity (PSR sort gate)” value was “low polyreactivity”.

For the sequence “QVQLVESVGGLVQAGGSLRLSCAASGSTFNQYAMGWYRHPPGKERELVAAISWSGGRTYYADSVKGRFTISRDNAKNTVYLQMNSLKPEDTSVYYCNKLTRDGRKEDYWGQGTQVTVSS”, the “polyreactivity (PSR sort gate)” value was “high polyreactivity”.

Consider “QLQLQESGGGLVQAGGSLRLSCAWSGTIAFTRDLGSYRQAPGKDREFVASIDRGASTYYADSVKGRFTISRDNAKNTVYLQMNSLKPEDTAVYYRAVIAPFYSSFAYWGQGTQVTVSS”, for which the “polyreactivity (PSR sort gate)” value is recorded as “high polyreactivity”.

With “QVQLVESGGGLEQAGGSLRLTWAASGRIFYVYAMGLYIQAPGKERELVAAITWRGGTTYYADSVKGRFTISRDNAQNTVYLEMNSLKPEDTAVYYCNAKYFRSYYSIEYDYWGQGTQVTVSS”, the “polyreactivity (PSR sort gate)” value is listed as “low polyreactivity”.

Regarding “QVQLVESGGGLVQAGGSLRLSCAASGRTIWWYAMGWYRQAPGKERELVADITWIGGSTYYADSVKGRFTISRDNAKNTVYLQMNSLKPEDTAVYYCATDKDDVSDLGKDYAYFEYDYWGQGTQVTVSS”, the “polyreactivity (PSR sort gate)” value is listed as “low polyreactivity”.

On to “QVQLVESGGGLVQAGGSLRLSCAASGSTFNYYAMGWYRQAPGKERELVAAITSSGTSTFYADSVKGRITISRDNAKNTVYLQMNSLKPEDTAVYYCAVDLYWSYFNGALGYRYYYWGQGTQVTVSS”, for which the “polyreactivity (PSR sort gate)” value is “high polyreactivity”.

Consider “QVQLEESGGCLVQAGGSLRLSCAASGSIFRHNVMGWYRPAPGKERELVAAISGGGGRTYYADSVKGRFTISRDNAKNTVYLQMNSQKPEDTAVYYCNAVGPGLYQGDSTDSRYNYWGQGTQVTVSS”, for which the “polyreactivity (PSR sort gate)” value was “high polyreactivity”.

On to “QVQLVESGGGLVQAGGSLRLSCAASGSIFHWYAMGWYRQAPGKERELVAAISYSGASTYYADSVKGRFTISRDNAKITVYLQMNSLKPDDTAVYYCAAKVTGKGYYWGQGTQVTVSS”, for which the “polyreactivity (PSR sort gate)” value is listed as “high polyreactivity”.

Values taken from the nanobody polyreactivity screen of Harvey et al. (2022).
